In patent publication US20250066499A1 (SUNSHINE GUOJIAN PHARMACEUTICAL SHANGHAI, published 2025):
Positions count from the first letter of the chain named.

Assays:
Assay in all cases: ELISA, high plateau value (OD 450 nm)
CD73-ND-L181A = biological target: T1, CD73-ND-L181A (human, UniProt P21589 27-317)
T1 construct: Alanine mutant of CD73-ND
T1 sequence: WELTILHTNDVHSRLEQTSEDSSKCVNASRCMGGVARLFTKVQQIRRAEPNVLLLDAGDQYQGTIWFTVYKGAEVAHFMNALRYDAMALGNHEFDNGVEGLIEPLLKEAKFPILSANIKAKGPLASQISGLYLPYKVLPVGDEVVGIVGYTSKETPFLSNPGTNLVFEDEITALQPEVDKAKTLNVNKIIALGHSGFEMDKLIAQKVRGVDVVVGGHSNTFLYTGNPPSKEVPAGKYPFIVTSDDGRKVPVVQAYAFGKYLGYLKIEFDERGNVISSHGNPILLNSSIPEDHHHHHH
Experimental: (§1) The ELISA plates were coated with SA protein diluted to 1.5 μg/mL in coating buffer (50 mM carbonate coating buffer, pH 9.6) and incubated overnight at 4° C. The supernatant was discarded, and the plates were washed three times with PBST. Then, 5% skimmed milk powder prepared with PBS was added for blocking and the plates were incubated for 2 h at 37° C. After washing the plates once with PBST, CD73-biotin protein (prepared by biotinylating CD73-His protein according to the EZ-Link NHS-Biotin Reagent instructions) was diluted to 0.5 μg/mL and added at 100 μL/well for incubation at room temperature for 1 h. The plates were washed three times with PBST, and the prepared murine-derived monoclonal antibodies against human CD73 were serially diluted with 1% BSA buffer prepared with PBST and added to the ELISA plates at 100 μl/well. The plates were incubated at 37° C. for 1 h. After washing the plates three times with PBST, HRP-labeled goat anti-mouse IgG secondary antibody was added and the plates were incubated for 30 min at 37° C. After washing the plates three times with PBST, the residual droplets were patted dry on absorbent paper as much as possible. Then, 100 μl of TMB color developing solution was added to each well, and the plates were incubated in the dark at room temperature for 5 min for color development. Subsequently, 50 μl of 2M H₂SO₄ stop solution was added to each well to terminate the substrate reaction. The OD values were read at 450 nm using a multimode microplate reader to analyze the binding ability of the tested antibodies to the target antigen human CD73-His.
(§2) Referring to the experimental method in Example 3, the affinity of 48A11-HuV33 for various mutant proteins of CD73-ND was determined. The SA protein was diluted to 1 μg/mL for coating the ELISA plates, and the biotinylated CD73 protein (CD73-biotin) was used at a concentration of 0.1 μg/mL.

CD73-ND-E143A = biological target: T2, CD73-ND-E143A (human, UniProt P21589 27-317)
T2 construct: Alanine mutant of CD73-ND
T2 sequence: T1 sequence with E143A, A181L
Experimental: as §1, §2

CD73-ND-K180A = biological target: T3, CD73-ND-K180A (human, UniProt P21589 27-317)
T3 construct: Alanine mutant of CD73-ND
T3 sequence: T1 sequence with K180A, A181L
Experimental: as §1, §2

CD73-ND-N185A = biological target: T4, CD73-ND-N185A (human, UniProt P21589 27-317)
T4 construct: Alanine mutant of CD73-ND
T4 sequence: T1 sequence with A181L, N185A
Experimental: as §1, §2

CD73-ND-K182A = biological target: T5, CD73-ND-K182A (human, UniProt P21589 27-317)
T5 construct: Alanine mutant of CD73-ND
T5 sequence: T1 sequence with A181L, K182A
Experimental: as §1, §2

CD73-ND-V144A = biological target: T6, CD73-ND-V144A (human, UniProt P21589 27-317)
T6 construct: Alanine mutant of CD73-ND
T6 sequence: T1 sequence with V144A, A181L
Experimental: as §1, §2

B1: 48A11-HuV33 (antibody, human IgG4, V domains shown)
VH: QVQLVQSGAEVKKPGASVKVSCKASGYTFTSYWMHWVRQAPGQGLEWIGEINPSIGRTNYNEKFKSRVTLTRDTSTSTAYMELSSLRSEDTAVYYCARRVYGTMDYWGQGTLVTVSS
VL: DIQMTQSPSSLSASVGDRVTITCKASQDINSYLSWFQQKPGKSPKLLIYRANIWVDGVPSRFSGSGSGQDYTFTISSLQPEDIATYYCLQYDELYTFGQGTKVEIK
notes: Humanized
B1 gave a Top (CD73-ND-L181A) of 1.05, a Top (CD73-ND-E143A) of 1.77 and a Top (CD73-ND-K180A) of 1.74. For the same binder, the Top (CD73-ND-N185A) was 1.9, the Top (CD73-ND-K182A) was 2.03 and the Top (CD73-ND-V144A) was 1.69.
